{"source": "paper PMC3102090", "about": "“Interaction between Amyloid Beta Peptide and an Aggregation Blocker Peptide Mimicking Islet Amyloid Polypeptide” (PLoS ONE, 2011)", "key": {"[1]": {"molecular_target": "IAPP-GI (Fluos-IAPP-GI) (Homo sapiens) (UniProt P10997)", "sequence (P10997 32-73)": "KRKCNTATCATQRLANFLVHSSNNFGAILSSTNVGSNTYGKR", "experiment": "fluorescence titration", "details": "cited from earlier work"}, "[2]": {"tested_on": "IAPP", "details": "ref [38]; cited from earlier work"}, "[3]": {"molecular_target": "Aβ40 (Homo sapiens, UniProt P05067)", "sequence (P05067 672-711 limits assumed)": "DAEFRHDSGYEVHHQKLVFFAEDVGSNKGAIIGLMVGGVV", "details": "Fluos-IAPP-GI (1 nM) titrated with low nano- to submicromolar Aβ40; fluorescence; ref [18]; read-out: app. Kd, IAPP-GI-Aβ40 interaction; cited from earlier work"}, "[4]": {"experiment": "CLEANEX-PM-FHSQC water-amide proton exchange", "format": "physicochemical", "details": "30 µM Aβ42, no IAPP-GI, pH 7.3, 278 K", "description": "In a CLEANEX-PM-FHSQC experiment, exposed parts of the backbone gain high signal intensity already at short mixing times due to efficient exchange with water, while for more protected groups the signal intensity only rises at longer mixing times.\nTo this end, CLEANEX-PM-FHSQC experiments were recorded on a Bruker Avance 600 MHz spectrometer equipped with a triple-resonance room temperature probe. […] The intensity of peaks as a function of mixing time was fitted to the following equation: [drawing 1] (1) where V0 is the intensity of the peak in a control FHSQC experiment, k is the normalized rate constant related to the forward exchange rate constant between water and NH protons, and R1A and R1B are apparent longitudinal relaxation rates for protein and water [32]."}, "[5]": {"experiment": "Side chain 1H-15N HSQC of histidines of Aβ42", "format": "physicochemical", "details": "30 µM Aβ42, no IAPP-GI, pH 7.3, 278 K", "procedure": "^1H-^15N HSQC spectra of the side chains of histidines (H6, H13 and H14) were acquired on a Bruker AMX 600 MHz spectrometer equipped with a triple-resonance cryogenic probe. […] A 30 µM sample of Aβ42 was also measured. The INEPT transfer delay was selected as 27.8 ms, to obtain the coherence transfer from the ε1H and δ2H protons to the ε2N and δ1N through the ^2J coupling constant (Figure 1B). The carrier and SWH values were 5.00 ppm and 6010 Hz in the direct dimension, and 185.31 ppm and 9728 Hz in the indirect dimension. The experimental matrix was 2K*256 complex data points, which after apodization through a 90°-shifted squared sine bell function in both dimensions was transformed to a final matrix of 8K*512 data points."}, "[6]": {"details": "cited from earlier work", "excerpt": "Therefore, we needed to find an experimental condition under which these two peptides predominantly populate a monomeric state."}, "[7]": {"tested_on": "Aβ and α-synuclein", "details": "ref [41]; cited from earlier work", "excerpt": "In agreement with their intrinsic aggregation propensities, the agg ..."}}, "note": "Square brackets hold non-standard residues; d marks the D form. Ends that are not written are not given here. fluorescein = fluorescein (N-terminal label); NMeI = CC[C@H](C)[C@H](NC)C(=O)O; Sar = CNCC(=O)O", "data": [{"compound": "Amyloid beta 40 1-40 (from UniProt P05067)", "values": [{"measurement": "Kd", "setting": "[1]", "value": 41.2, "unit": "nM"}]}, {"compound": "N-terminal part (residues 1–28): N-terminal part of Aβ (residues 1–28)", "values": [{"measurement": "affinity of N-terminal part of Aβ for IAPP", "setting": "[2]", "value": "low µM affinity"}]}, {"compound": "Fluos-IAPP-GI: N-terminal fluorescein labeled IAPP-GI (fluorescein-KCNTATCATQRLANFLVHSSNNF[Sar]A[NMeI]LSSTNVGSNTY; ends and bridges not checked)", "values": [{"measurement": "Kd", "setting": "[3]", "value": 50, "unit": "nM"}]}, {"compound": "Aβ42: amyloid-beta peptide; 15N-uniformly labeled Aβ1-42 purchased from rPeptide", "values": [{"measurement": "water-amide proton exchange rates of Aβ42 compared with Aβ40", "setting": "[4]", "value": "the exchange rates are reduced in regions (Figure 9) that are also affected upon addition of IAPP-GI to Aβ40"}, {"measurement": "histidine side-chain peak pattern of pure Aβ42", "setting": "[5]", "value": "very similar to that of Aβ40 with IAPP-GI"}]}, {"compound": "human IAPP: Islet Amyloid Polypeptide, hydrophobic strongly amyloidogenic peptide produced in the pancreatic islet cells (KCNTATCATQRLANFLVHSSNNFGAILSSTNVGSNTY; not fully specified (C-terminus, bridges); cysteine pairing not given here; UniProt P10997 34-70, looked up)", "values": [{"measurement": "assembly state of human IAPP", "setting": "[6]; neutral pH, 4°C, concentration as high as 255 µM (1 mg/mL), analytical ultracentrifugation and diffusion NMR, ref [24], [25]", "value": "kinetically stable state consisting of monomers and high molecular weight oligomers"}, {"measurement": "self-association of human IAPP", "setting": "[6]; temperatures above 20°C, ref [24]-[27]", "value": "rapidly drives monomeric IAPP molecules toward oligo- and multimerization"}]}, {"compound": "O=C(O[C@@H]1Cc2c(O)cc(O)cc2O[C@@H]1c1cc(O)c(O)c(O)c1)c1cc(O)c(O)c(O)c1", "note": "[(-)-epigallocatechin gallate]", "values": [{"measurement": "redirection of Aβ and α-synuclein into off-pathway oligomers", "setting": "[7]", "value": "redirection of Aβ and α-synuclein into off-pathway oligomers"}]}]}
